Assay results taken from patent US20210139593A1 (UNIVERSIDAD DE CHILE, published 2021).

Target: T1, recombinant MICA (rMICA) (UniProt Q29983 24-307, limits assumed)
T1 construct: Recombinant MICA coated on ELISA plates
T1 sequence (looked up): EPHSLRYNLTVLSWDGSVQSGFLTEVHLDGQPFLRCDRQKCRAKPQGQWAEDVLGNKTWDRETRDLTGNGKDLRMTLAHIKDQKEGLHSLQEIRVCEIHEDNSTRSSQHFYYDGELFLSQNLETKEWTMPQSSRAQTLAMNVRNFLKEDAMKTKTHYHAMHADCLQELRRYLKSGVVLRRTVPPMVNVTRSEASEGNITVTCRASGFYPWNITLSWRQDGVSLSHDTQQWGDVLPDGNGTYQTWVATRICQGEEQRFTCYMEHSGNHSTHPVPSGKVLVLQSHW
Assay: method not stated

B1: anti-MICA scFv protein (scFv-aMICA) (scFv)
scFv: EFGVVMTQSPDFQSVTPKEKVTITCRASQSIGRSIHWYQQKPDQSPKLLVMYASQSFSGVPSRFSGSGSGTDFTLTINSLEAEDAATYYCHQSYSVPRSFGQGTKLEIKRTVAAGGSSRSSSSGGGGSGGGGQVQLQESGPGLVKPSQTLSLTCTVSGDSVRSAYSSWNWIRQPPGKGLEWIGQIHPNGNTYYNPSLMSRITVSIDTSKNQFSLKLDSVTAADTAVYFCATEGVTSESGSFDIWGQGRMVIVSSASTKGPSVAS
notes: Monomeric soluble scFv produced from the phagemid pUCH1 Amber; also called scFv-MICA
Ka: 7.4e+06 M⁻¹ | Kd: 0.135 µM
